Reference: doi:10.1101/2021.01.21.427566, “Gradual opening of Smc arms in prokaryotic condensin” (bioRxiv, 2021)
Changes are numbered by the printed parent chain. Numbers in names are those of the source.

B1: Smc^3SV(Q320C) (natural protein, B. subtilis, UniProt P51834 1-1186, looked up)
chain: MFLKRLDVIGFKSFAERISVDFVKGVTAVVGPNGSGKSNITDAIRWVLGEQSARSLRGGKMEDIIFAGSDSRKRLNLAEVTLTLDNDDHFLPIDFHEVSVTRRVYRSGESEFLINNQPSRLKDIIDLFMDSGLGKEAFSIISQGKVEEILSSKAEDRRSIFEEAAGVLKYKTRKKKAENKLFETQDNLNRVEDILHELEGQVEPLKIQASIAKDYLEKKKELEHVEIALTAYDIEELHGKWSTLKEKVQMAKEEELAESSAISAKEAKIEDTRDKIQALDESVDELQQVLLVTSEELEKLEGRKEVLKERKKNAVQNQECLEEAIVQFQQKETVLKEELSKQEAVFETLQAEVKQLRAQVKEKQQALSLHNENVEEKIEQLKSDYFELLNSQASIRNELQLLDDQMSQSAVTLQRLADNNEKHLQERHDISARKAASETEFARIEQEIHSQVGAYRDMQTKYEQKKRQYEKNESALYQAYQYVQQARSKKDMLETMQGDFSGFYQGVKEVLKAKERLGGIRGAVLELISTEQKYETAIEIALGASAQHVVTDDEQSARKAIQYLKQNSFGRATFLPLSVIRDRQLQSRDAETAARHSSFLGVASELVTFDPAYRSVIQNLLGTVLITEDLKGANELAKLLGHRYRIVTLEGDVVNPGGSMTGGAVKKKNNSLLGRSRELEDVTKRLAEMEEKTALLEQEVKTLKHSIQDMEKKLADLRETGEGLRLKQQDVKGQLYELQVAEKNINTHLELYDQEKSALSESDEERKVRKRKLEEELSAVSEKMKQLEEDIDRLTKQKQTQSSTKESLSNELTELKIAAAKKEQASKGEEDNLARLKKELTETELALKEAKEDLSFLTSEMSSSTSGEEKLEEAAKHKLNDKTKTIELIALRRDQRIKLQHGLDTYERELKEMKRLYKQKTTLLKDEEVKLGRMEVELDNLLQYLREEYSLSFEGAKEKYQLETDPEEARKRVKLIKLAIEELGTVNLGSIDEFERVNERYKFLSEQKEDLTEAKNTLFQVIEEMDEEMTKRFNDTFVQIRSHFDQVFRSLFGGGRAELRLTDPNDLLHSGVEIIAQPPGKKLQNLNLLSGGERALTAIALLFSILKVRPVPFVVLDEVEAALDEANVFRFAQYLKKYSSDTQFIVITHRKGTMEEADVLYGVTMQESGVSKVISVKLEETKEFVQ
modifications: engineered cysteine 320 cross-linked with M3M
notes: Smc, Bacillus subtilis (Bsu), cys-free Smc^3SV background with Q320C; also called Q320C at contact 4^N; source: E. coli BL21-Gold (DE3), purified (HiTrap Blue, Heparin, gel filtration without reducing agent)
B2: Smc^3SV(A715C) (natural protein, B. subtilis, UniProt P51834 1-1186, looked up)
chain: B1 chain with C320Q, A715C
modifications: engineered cysteine 715 cross-linked with M3M
notes: Smc, Bacillus subtilis (Bsu), cys-free Smc^3SV background with A715C; also called A715C at contact 7^C; source: E. coli BL21-Gold (DE3), purified (HiTrap Blue, Heparin, gel filtration without reducing agent)
B3: Smc^3SV(Y944C) (natural protein, B. subtilis, UniProt P51834 1-1186, looked up)
chain: B1 chain with C320Q, Y944C
modifications: engineered cysteine 944 cross-linked with M3M
notes: Smc, Bacillus subtilis (Bsu), cys-free Smc^3SV background with Y944C; also called Y944C at contact 3^C; source: E. coli BL21-Gold (DE3), purified (HiTrap Blue, Heparin, gel filtration without reducing agent)
B4: Smc^3SV(D193C) (natural protein, B. subtilis, UniProt P51834 1-1186, looked up)
chain: B1 chain with D193C, C320Q
modifications: engineered cysteine 193 cross-linked with M3M
notes: Smc, Bacillus subtilis (Bsu), cys-free Smc^3SV background with D193C; also called D193C at contact 1^N; source: E. coli BL21-Gold (DE3), purified (HiTrap Blue, Heparin, gel filtration without reducing agent)
B5: Smc^3S(R643C, E1118Q) (natural protein, B. subtilis, UniProt P51834 1-1186, looked up)
chain: B1 chain with C320Q, R643C, V1114C, E1118Q
modifications: MTSL spin label on the engineered cysteine 643
notes: Smc, Bacillus subtilis (Bsu), cysteine-lite Smc^3S background with R643C and Walker B E1118Q; also called Smc^3S(EQ) single cysteine mutant; source: E. coli BL21-Gold (DE3), purified (HiTrap Blue, Heparin, gel filtration)
B6: Smc^3S(D193C) (natural protein, B. subtilis, UniProt P51834 1-1186, looked up)
chain: B1 chain with D193C, C320Q, V1114C
modifications: MTSL spin label on the engineered cysteine 193
notes: Smc, Bacillus subtilis (Bsu), cysteine-lite Smc^3S background with D193C, without E1118Q; also called wild-type Smc (without E1118Q) with D193C; wt Smc; source: E. coli BL21-Gold (DE3), purified (HiTrap Blue, Heparin, gel filtration)

Target: the molecule itself
Test: cross-linking; purified single-cysteine Smc, 30 µM dimers with 600 µM M3M in 50 mM Tris-HCl pH 7.5, 200 mM NaCl, 4 °C overnight; non-reducing SDS-PAGE, Coomassie; reversed by up to 10 mM DTT

Binding result, binds:
B1
B2
B3
B4

Target: the molecule itself
Test: EPR-DEER; MTSL-labelled single-cysteine Smc, 5 µM, mixed with ScpA and ScpB (similar trends without ScpAB); apo, or with 1 mM ATP and 10 µM dsDNA40; 50 mM Tris-HCl pH 7.5, 50 mM NaCl, 2 mM MgCl2, 40 % ethylene glycol-d6, 90 % deuterium oxide; shock-frozen, DEER traces at 50 K, Q band; spin-spin distances between the two Smc of a dimer

Binding result, binds:
B5
B6
